This note sets out measurements from the supplement of paper PMC5998384.

Series [1] concerns HeLa Kyoto. As to the kind of experiment: solubility change mitosis vs G1/S (difference of NP-40 vs SDS log2 ratios) (log2 ratio difference); higher = more soluble in mitosis.
The subject of series [2] is HeLa Kyoto. As to the kind of experiment: melting temperature (median over replicates), in situ; higher = more thermally stable.
In series [3] the test system is HeLa Kyoto. As to the kind of experiment: thermal stability score vs G1/S (z-score of summed log2 fold changes over temperatures); higher = more thermally stable than in G1/S.
Series [4] relates to HeLa Kyoto. As to the kind of experiment: solubility in G1/S (NP-40 vs SDS abundance) (log2 ratio); higher = more soluble. The following applies: cell cycle stage: G1/S.
Setting [5] is: cell cycle stage: early G1 (4.5 h after nocodazole release).
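Throughout, for melting temperature (median over replicates), in situ: HeLa Kyoto cells synchronized by double thymidine or nocodazole block, proteins quantified by TMT10plex mass spectrometry, three independent biological replicates.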
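Throughout, for solubility change mitosis vs G1/S (difference of NP-40 vs SDS log2 ratios): synchronized HeLa Kyoto cells (double thymidine block for G1/S, nocodazole release for mitosis), protein amounts in NP-40 versus SDS lysates quantified by mass spectrometry, three biological replicates.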
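Throughout, for solubility in G1/S (NP-40 vs SDS abundance): HeLa Kyoto cells arrested at G1/S by double thymidine block, proteins quantified by TMT10plex mass spectrometry in mild NP-40 versus SDS extracts, three biological replicates.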
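Throughout, for thermal stability score vs G1/S (z-score of summed log2 fold changes over temperatures): synchronized HeLa Kyoto cells, proteins quantified by TMT10plex mass spectrometry, three biological replicates, mitosis taken 0.5 h after nocodazole release, G1/S directly after double thymidine block.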

For the sequence “MALLAMHSWRWAAAAAAFEKRRHSAILIRPLVSVSGSGPQWRPHQLGALGTARAYQIPESLKSITWQRLGKGNSGQFLDAAKALQVWPLIEKRTCWHGHAGGGLHTDPKEGLKDVDTRKIIKAMLSYVWPKDRPDLRARVAISLGFLGGAKAMNIVVPFMFKYAVDSLNQMSGNMLNLSDAPNTVATMATAVLIGYGVSRAGAAFFNEVRNAVFGKVAQNSIRRIAKNVFLHLHNLDLGFHLSRQTGALSKAIDRGTRGISFVLSALVFNLLPIMFEVMLVSGVLYYKCGAQFALVTLGTLGTYTAFTVAVTRWRTRFRIEMNKADNDAGNAAIDSLLNYETVKYFNNERYEAQRYDGFLKTYETASLKSTSTLAMLNFGQSAIFSVGLTAIMVLASQGIVAGTLTVGDLVMVNGLLFQLSLPLNFLGTVYRETRQALIDMNTLFTLLKVDTQIKDKVMASPLQITPQTATVAFDNVHFEYIEGQKVLSGISFEVPAGKKVAIVGGSGSGKSTIVRLLFRFYEPQKGSIYLAGQNIQDVSLESLRRAVGVVPQDAVLFHNTIYYNLLYGNISASPEEVYAVAKLAGLHDAILRMPHGYDTQVGERGLKLSGGEKQRVAIARAILKDPPVILYDEATSSLDSITEETILGAMKDVVKHRTSIFIAHRLSTVVDADEIIVLDQGKVAERGTHHGLLANPHSIYSEMWHTQSSRVQNHDNPKWEAKKENISKEEERKKLQEEIVNSVKGCGNCSC [ABCB7]”, the “solubility change mitosis (log2)” value in series [1] is -0.12. Besides, the melting temperature in series [2] (cell cycle stage: G1/S) came to 52.5 °C; in series [2] (cell cycle stage: mitosis) it was 51.6 °C. The thermal stability score in series [3] (setting [5]) was -0.909; in series [3] (cell cycle stage: mitosis) it was -1.83. Besides, the “solubility in G1/S (log2)” value in series [4] is -0.121.
As for “MALLLCFVLLCGVVDFARSLSITTPEEMIEKAKGETAYLPCKFTLSPEDQGPLDIEWLISPADNQKVDQVIILYSGDKIYDDYYPDLKGRVHFTSNDLKSGDASINVTNLQLSDIGTYQCKVKKAPGVANKKIHLVVLVKPSGARCYVDGSEEIGSDFKIKCEPKEGSLPLQYEWQKLSDSQKMPTSWLAEMTSSVISVKNASSEYSGTYSCTVRNRVGSDQCLLRLNVVPPSNKAGLIAGAIIGTLLALALIGLIIFCCRKKRREEKYEKEVHHDIREDVPPPKSRTSTARSYIGSNHSSLGSMSPSNMEGYSKTQYNQVPSEDFERTPQSPTLPPAKVAAPNLSRMGAIPVMIPAQSKDGSIV [CXADR]”, the “solubility change mitosis (log2)” value in series [1] was -0.112. Also, the melting temperature in series [2] (cell cycle stage: G1/S) was found to be 59.4 °C; in series [2] (cell cycle stage: mitosis) it was 57.6 °C. Besides, the thermal stability score was -1.74 in series [3] (setting [5]) and -2.2 in series [3] (cell cycle stage: mitosis). Besides, the “solubility in G1/S (log2)” value in series [4] was found to be 0.245.
Regarding “MALLRGVFVVAAKRTPFGAYGGLLKDFTATDLSEFAAKAALSAGKVSPETVDSVIMGNVLQSSSDAIYLARHVGLRVGIPKETPALTINRLCGSGFQSIVNGCQEICVKEAEVVLCGGTESMSQAPYCVRNVRFGTKLGSDIKLEDSLWVSLTDQHVQLPMAMTAENLAVKHKISREECDKYALQSQQRWKAANDAGYFNDEMAPIEVKTKKGKQTMQVDEHARPQTTLEQLQKLPPVFKKDGTVTAGNASGVADGAGAVIIASEDAVKKHNFTPLARIVGYFVSGCDPSIMGIGPVPAISGALKKAGLSLKDMDLVEVNEAFAPQYLAVERSLDLDISKTNVNGGAIALGHPLGGSGSRITAHLVHELRRRGGKYAVGSACIGGGQGIAVIIQSTA [ACAA2]”, the “solubility change mitosis (log2)” value in series [1] is -0.0842. Besides, the values for the melting temperature in series [2] (cell cycle stage: G1/S) and in series [2] (cell cycle stage: mitosis) were 59.3 °C and 59.2 °C, respectively. Also, the figures for the thermal stability score in series [3] (setting [5]) and in series [3] (cell cycle stage: mitosis) were -3.39 and -4.11, respectively. The “solubility in G1/S (log2)” value in series [4] was 0.213.
For the sequence “MALLSTVRGATWGRLVTRHFSHAARHGERPGGEELSRLLLDDLVPTSRLELLFGMTPCLLALQAARRSVARLLLQAGKAGLQGKRAELLRMAEARDIPVLRPRRQKLDTMCRYQVHQGVCMEVSPLRPRPWREAGEASPGDDPQQLWLVLDGIQDPRNFGAVLRSAHFLGVDKVITSRRNSCPLTPVVSKSSAGAMEVMDVFSTDDLTGFLQTKAQQGWLVAGTVGCPSTEDPQSSEIPIMSCLEFLWERPTLLVLGNEGSGLSQEVQASCQLLLTILPRRQLPPGLESLNVSVAAGILLHSICSQRKGFPTEGERRQLLQDPQEPSARSEGLSMAQHPGLSSGPEKERQNEG [MRM1]”, in series [1], the “solubility change mitosis (log2)” value was determined as 0.0939. Moreover, the results for the melting temperature in series [2] (cell cycle stage: G1/S) and in series [2] (cell cycle stage: mitosis) were 53.3 °C and 51.7 °C, respectively. The thermal stability score in series [3] (setting [5]) was -1.62; in series [3] (cell cycle stage: mitosis) it was -1.81. The “solubility in G1/S (log2)” value in series [4] is -0.178.
For the sequence “MALLVRVLRNQTSISQWVPVCSRLIPVSPTQGQGDRALSRTSQWPQMSQSRACGGSEQIPGIDIQLNRKYHTTRKLSTTKDSPQPVEEKVGAFTKIIEAMGFTGPLKYSKWKIKIAALRMYTSCVEKTDFEEFFLRCQMPDTFNSWFLITLLHVWMCLVRMKQEGRSGKYMCRIIVHFMWEDVQQRGRVMGVNPYILKKNMILMTNHFYAAILGYDEGILSDDHGLAAALWRTFFNRKCEDPRHLELLVEYVRKQIQYLDSMNGEDLLLTGEVSWRPLVEKNPQSILKPHSPTYNDEGL [UQCC1]”, the “solubility change mitosis (log2)” value in series [1] is -0.25. Further, the melting temperature was 54.2 °C in series [2] (cell cycle stage: G1/S) and 54.1 °C in series [2] (cell cycle stage: mitosis). In addition, the results for the thermal stability score in series [3] (setting [5]) and in series [3] (cell cycle stage: mitosis) were 0.338 and -0.909, respectively. Also, the “solubility in G1/S (log2)” value in series [4] was -0.367.
“MALPFRKDLEKYKDLDEDELLGNLSETELKQLETVLDDLDPENALLPAGFRQKNQTSKSTTGPFDREHLLSYLEKEALEHKDREDYVPYTGEKKGKIFIPKQKPVQTFTEEKVSLDPELEEALTSASDTELCDLAAILGMHNLITNTKFCNIMGSSNGVDQEHFSNVVKGEKILPVFDEPPNPTNVEESLKRTKENDAHLVEVNLNNIKNIPIPTLKDFAKALETNTHVKCFSLAATRSNDPVATAFAEMLKVNKTLKSLNVESNFITGVGILALIDALRDNETLAELKIDNQRQQLGTAVELEMAKMLEENTNILKFGYQFTQQGPRTRAANAITKNNDLVRKRRVEGDHQ [TMOD3]”: in series [1], the “solubility change mitosis (log2)” value was 0.296. Besides, the melting temperature in series [2] (cell cycle stage: G1/S) was determined as 49.4 °C; in series [2] (cell cycle stage: mitosis), 50.5 °C. For the same sequence, the results for the thermal stability score in series [3] (setting [5]) and in series [3] (cell cycle stage: mitosis) were -0.553 and 0.573, respectively. For the same sequence, the “solubility in G1/S (log2)” value in series [4] stood at 0.293.
